Values of other authors, collected in patent US20080107649A1, “Immunogenic compositions of cyclic peptides derived from the beta-amyloid peptide” (Pevion Biotech Ltd., priority 2004, published 2008).

Conditions: human, in vivo

Aβ1-42: β-amyloid peptide of 42 amino acids (SEQ ID NO: 1), predominantly found in the plaques
side effect of inoculation: severe side effect of cerebral inflammation in some patients
